Measured values reported in article PMC7984254 (Biochimica et biophysica acta. Molecular cell research, 2020).

Biological target: recombinant FGF14 protein (aa 64–252) (human, UniProt Q92915-2 64-252)
Experiment: SPR

koff: 0.158 s⁻¹ | kon: 23200 M⁻¹ s⁻¹
Binder: KFKESVFENAYVIYSSMLYR (peptide, UniProt Q92915-2 149-168, looked up) [FGF14^Y158A mutant peptide]
